From US20200223888A1 (ARCH BIOPARTNERS, published 2020)
Ends that are not written are not given here. * marks the point of attachment. Biotin = O=C1N[C@H]2[C@H](CS[C@H]2CCCCC(=O)*)N1

B4: LSALT peptide (LSALTPSPSWLKYKAL) (peptide)
peptide: LSALTPSPSWLKYKAL
modifications: also: Alexa-488 or biotin label or agarose support in some assays, site not given here
notes: Synthetic peptide from a phage display hit; The label or support differs between assays; also called Metablok; Native

Tests used:
[1] = biological target: T1, LSALT peptide (LSALTPSPSWLKYKAL)
T1 chain: LSALTPSPSWLKYKAL

[2] = biological target: T2, human membrane dipeptidase (DPEP-1), wild type, expressed on transfected cells (human, UniProt P16444 17-385); assay: phage (10^8 pfu) on DPEP1 transfected Cos 1 cells, anti-M13 serum, fluorescence imaging (FIG. 19B)
T2 construct: whole, on cells; also called human DPEP1; hDPEP1
T2 sequence (looked up): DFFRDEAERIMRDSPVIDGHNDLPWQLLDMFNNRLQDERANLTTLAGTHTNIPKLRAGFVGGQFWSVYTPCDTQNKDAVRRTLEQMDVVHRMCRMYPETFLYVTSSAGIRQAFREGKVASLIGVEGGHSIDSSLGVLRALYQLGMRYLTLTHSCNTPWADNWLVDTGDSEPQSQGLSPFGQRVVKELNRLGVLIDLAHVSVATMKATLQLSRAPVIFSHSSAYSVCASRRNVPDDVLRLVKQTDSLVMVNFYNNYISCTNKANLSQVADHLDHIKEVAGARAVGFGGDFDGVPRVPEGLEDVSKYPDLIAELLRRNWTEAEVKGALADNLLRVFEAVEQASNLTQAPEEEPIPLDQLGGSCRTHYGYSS
Method: In FIG. 19B, Cosl cells were transiently transfected with plasmids corresponding to human DPEP1 or DPEP2 (Lipofectamine 2000) 24 hrs prior to plating on collagen-coated (PureCol; Type I collagen from bovine tendon) coverslips. One day later cells were incubated with 10⁸ pfu test phage, which were then detected by anti-M13 rabbit serum (in house) with anti-rabbit Alexa 568 secondary. After fixing and counterstaining with DAPI, coverslips were fluorescently imaged.

[3] = biological target: B4; assay: phage display biopanning against LSALT-agarose, three rounds, plaque sequencing (FIG. 20A)
Excerpt: Each plaque was amplified separately in liquid bacterial host culture. […] DNA inserts were translated to the expected protein and sorted to assess the number of repeating sequences.

[4] = biological target: T3, rat membrane dipeptidase (DPEP-1), expressed on transfected Cos cells (rat, UniProt P31430 17-384); assay: Alexa-488 peptide on transfected Cos-7 cells, flow cytometry (FIG. 9)
T3 construct: whole, on cells; also called renal rat membrane dipeptidase (DPEP-1); rat DPEP-1
Method: Cells were washed and flow cytometry was performed to assess binding. Shown are single parameter histographs for each experimental condition (n=2).

[5] = biological target: T2, human membrane dipeptidase (DPEP-1), …; assay: Alexa-488 peptide on transfected Cos-1 cells, immunofluorescence microscopy (FIG. 5B)
Method: Cells were blocked with FBS/NBSA/Tween in PBS for 30 minutes on ice.

[6] = biological target: T2, human membrane dipeptidase (DPEP-1), …; assay: biotinylated peptide at 5 uM on fixed DPEP1-transfected HEK cells, Alexa 568-streptavidin, fluorescence microscopy

T3 sequence (P31430 17-384): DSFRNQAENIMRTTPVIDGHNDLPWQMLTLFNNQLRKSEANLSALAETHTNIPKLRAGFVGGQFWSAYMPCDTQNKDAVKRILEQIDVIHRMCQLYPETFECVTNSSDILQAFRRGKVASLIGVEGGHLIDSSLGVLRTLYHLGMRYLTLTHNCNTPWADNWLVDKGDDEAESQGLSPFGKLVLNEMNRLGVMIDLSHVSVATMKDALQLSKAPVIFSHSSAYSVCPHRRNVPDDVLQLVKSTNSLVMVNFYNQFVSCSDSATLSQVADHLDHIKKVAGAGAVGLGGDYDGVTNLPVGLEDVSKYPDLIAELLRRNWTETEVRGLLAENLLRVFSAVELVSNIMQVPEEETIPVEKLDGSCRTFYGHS

B1: human membrane dipeptidase (DPEP-1), wild type, expressed on transfected cells (protein)
chain: DFFRDEAERIMRDSPVIDGHNDLPWQLLDMFNNRLQDERANLTTLAGTHTNIPKLRAGFVGGQFWSVYTPCDTQNKDAVRRTLEQMDVVHRMCRMYPETFLYVTSSAGIRQAFREGKVASLIGVEGGHSIDSSLGVLRALYQLGMRYLTLTHSCNTPWADNWLVDTGDSEPQSQGLSPFGQRVVKELNRLGVLIDLAHVSVATMKATLQLSRAPVIFSHSSAYSVCASRRNVPDDVLRLVKQTDSLVMVNFYNNYISCTNKANLSQVADHLDHIKEVAGARAVGFGGDFDGVPRVPEGLEDVSKYPDLIAELLRRNWTEAEVKGALADNLLRVFEAVEQASNLTQAPEEEPIPLDQLGGSCRTHYGYSS
membrane dipeptidase enzyme activity (Gly-D-Phe substrate, fluorimetric detection of D-Phe) (GFE-1 peptide): LSALT and GFE-1 do not inhibit membrane dipeptidase enzyme activity
membrane dipeptidase enzyme activity (Gly-D-Phe substrate, fluorimetric detection of D-Phe) [1]: LSALT and GFE-1 do not inhibit membrane dipeptidase enzyme activity

B2: phage hit displaying KHMHWHPPALNT (Ph.D.-12 library) (peptide)
peptide: KHMHWHPPALNT
notes: The phage coat protein part is not described; also called neogenin-mimetic peptide phage hit; phage peptide tentatively identified as corresponding to Neogenin
binding result [2]: binds

B3: IPK phage hit HIPKSPIQIPII (Ph.D.-12 library) (peptide)
peptide: HIPKSPIQIPII
notes: also called IPK peptide
binding result [3]: binds

B4
binding result [4]: binds
binding result [5]: binds

B5: LSALT alanine walk peptide Pos 1 (ASALTPSPSWLKYKAL) (peptide)
peptide: Biotin-ASALTPSPSWLKYKAL
notes: also called #A1; A1
binding result [6]: binds

B6: LSALT alanine walk peptide Pos 10 (LSALTPSPSALKYKAL) (peptide)
peptide: Biotin-LSALTPSPSALKYKAL
notes: also called #A10; A10
binding result [6]: binds

B7: LSALT alanine walk peptide Pos 5 (LSALAPSPSWLKYKAL) (peptide)
peptide: Biotin-LSALAPSPSWLKYKAL
notes: also called #A5; A5
binding result [6]: binds

B8: LSALT alanine walk peptide Pos 12 (LSALTPSPSWLAYKAL) (peptide)
peptide: Biotin-LSALTPSPSWLAYKAL
notes: also called #A12; #Al2
binding result [6]: binds
